Target: LDLRs
Assay: SPR

Kd: 330 nM
Substance: Tissue-type plasminogen activator (recombinant human tPA, Actilyse) (enzyme)

Reference: PMC3198853
